{"source": "patent US20240269104A1", "about": "“METHOD FOR TREATING PARKINSON'S DISEASE” (Olatec Therapeutics, Inc., priority 2021, published 2024)", "key": {"[1]": {"conditions": "in vivo; cited from earlier work"}, "[2]": {"system": "MPTP-injected-mouse model of PD", "assay": "accelerating rotarod test after MPTP-acute administration", "assay_type": "in vivo, C56BL/J mice", "conditions": "anakinra 20 mg/kg intraperitoneal 30 minutes before MPTP; day 3", "experimental": "MPTP (Sigma-Aldrich, St. Louis, MO) can be administered at two dose regimens: acute and sub-acute. For the acute regimen, MPTP was administered intraperitoneally (i.p.) four times in one day. Administrations were performed every two hours over an eight-hour period. For the subacute regimen, mice received a single i.p. administration of MPTP per day for five consecutive days. A 20 mg/kg free-base MPTP dose was used for every dose in both models. Sterile saline was used as the vehicle. Control mice were injected with saline solution using the same administration protocol and were defined as sham. Mice were sacrificed at different days after the first injection of MPTP. We used the acute protocol in C56BL/J mice to study dopamine neurodegeneration, inflammation, and motor deficits, whereas the subacute model was used to evaluate α-synuclein aggregation in the following examples. […]\nThe accelerating rotarod (Ugo Basile, Gemonio, ITALY) was used to evaluate locomotor function in mice subjected to the MPTP-acute administration. An accelerating program was selected to detect locomotor impairments associated to MPTP (Keshet et al, J Comp Neurol 504:690-701, 2007; Rui et al., Int J Neuropsychopharmacol., 2020). We used a rotarod device with a cylinder rod of three centimeters in diameter. The mice underwent a training period of three consecutive days prior to MPTP administration. In each training session, mice were subjected to run at four constant speeds (10 rpm, 20 rpm, 30 rpm, and 40 rpm) for 150 seconds at each speed. If mice fell during that time, they were put back in the rotarod immediately. On the testing day, we used an increased-speed program. Mice were placed on the rotarod device for 150 seconds at 30 rpm as warm up. Immediately after 150 seconds, the accelerating session started, and the speed increased from 30 rpm to 70 rpm for 500 seconds. Time to fall was recorded. Accelerating sessions were repeated three times with a resting interval of five minutes between sessions. Average time to fall per mouse was calculated and used as final measurement.\nWe then evaluated the effect of dapansutrile. To avoid overloading animals with fluid (which can lead to fatal heart failure), dapansutrile was administered through oral gavage at 200 mg/kg in water. Dapansutrile was given 30 minutes before the first injection of MPTP. Mice treated with saline were used as control. We also included a sham-group that received saline through intraperitoneal injections instead of MPTP. […]"}}}
{"substance": "anakinra: Interleukin-1 receptor antagonist (IL-1Ra), 17.3 kDa; differs from native human IL-1Ra by an added amino-terminal methionine and absence of glycosylation [reference compound]", "values": [{"measurement": "CSF penetration", "setting": "[1]", "result": "0.2-0.3%"}, {"measurement": "rotarod latency to fall versus control mice treated with saline", "setting": "[2]", "result": "the same latency to fall"}]}
